These results are taken from article PMC4868700, “Use of a novel cytotoxic HEXIM1 peptide in the directed breast cancer therapy” (Oncotarget, 2015).

Entries after “also recorded” stand apart in the source; their conditions may differ. No end group written: not given here.

Type in all cases: cell-based, Human
The test system of data set [1] is MCF7 cells. Put plainly: Internalization and intracellular distribution of FITC-labeled peptides, confocal microscopy. Conditions: MCF7, FITC-labeled peptides 30 μM, 30 min, washed three times with PBS, Figure 6A. The protocol: (§1) Figure 6 The un-tagged HEXIM1 BR peptide fails to enter cells by itself (A) MCF7 cells were cultured on glass slides overnight before incubation with the indicated FITC-labeled peptides (30 μM) for 30 min and subsequently analyzed by laser scanning confocal microscopy. Nuclei were visualized by DAPI. Cells treated with vehicle, DMSO (0.5%) were used as control. Representative fluorescent images are shown (bar, 10 μm). (B) The FITC-positive cells were quantified by flow cytometry. Data represent percentage of fluorescence-positive cells in total cell population. Results were summarized as mean ± SD of three independent experiments (***P < 0.0001, Student's t test).
To determine the ability of FITC-labeled peptides to enter the cells and to visualize intracellular distribution of the peptides, MCF7 cells were plated on 4-chamber glass cover slides (Lab-Tek) to adhere overnight, incubated with FITC-labeled peptides (30 μM) for 30 min, and then washed three times with PBS before being fixed and mounted with DAPI-containing mounting solution (Vectashield). Images were acquired using a Nikon A1R confocal laser scanning microscope equipped with a 60 × oil-immersion objective lens (SBIC-Nikon Imaging Centre).

In data set [2] the test system is MCF7 cells. Kind of data set: Internalized fluorescent peptide by flow cytometry. Conditions: MCF7, FITC-labeled peptides 30 μM, 30 min at 37°C, washed, trypsinized, mean of three independent experiments, Figure 6B. On the procedure:
as §1
MCF7 cells were plated on 6-cm culture dish to allow overnight adherence. FITC-labeled peptides (30 μM) were added to the cells, incubated for 30 min at 37°C, and subsequently washed three times with PBS. The cells were then trypsinized, collected by centrifugation, and finally resuspended in 500 μl ice-cold 2% FBS-containing PBS for flow cytometry analysis.

The subject of another data set is MDA-MB-231 cells. Kind of data set: Cell viability (CellTiter-Glo). The following applies: MDA-MB-231, different concentrations overnight, Figure 5B, 5D, S2. On the procedure:
(§2) Cells were plated in clear-bottomed white walled 96-well plates (Corning) and incubated overnight. Cells were treated with indicated peptides in 1% FBS-containing media for overnight or indicated timings at 37°C. Cell viability was measured with CellTiter-Glo reagent (Promega) according to the manufacturer's instructions. For cytotoxicity assay, cells were plated in black walled 96-well plates (Corning) to allow them to adhere overnight. Upon treatment with a pan-caspase inhibitor, z-VAD-Fmk (100 μM) (Sigma) and subsequent treatment with LTV-tagged peptides, cytotoxicity induced was determined by CellTox cytotoxicity assay (Promega) 30 minutes after addition of peptides according to the manufacturer's instructions. Luminescence was determined using an Infinite 200 multiplate reader (Tecan).
For orientation: Cellular ATP, detected with luciferase, serves as a proxy for viable cell number.

Data set [3] has as its system MCF7 cells. Put plainly: Cell viability (CellTiter-Glo). The following applies: MCF7, different concentrations overnight, Figure 5A, 5C. On the procedure:
as §2

Turning to “BR-FITC: fluorescent-labeled (FITC) BR peptide (QLGKKKHRRRPSKKKRHW; also: FITC label; UniProt O94992 147-164, looked up, fragment)”, the “internalization and intracellular distribution of fluorescent-labeled peptide” value in the data set on MCF7 cells [1] was “no fluorescent signal was observed”. Besides, the “percentage of fluorescence-positive cells in total cell population (internalized fluorescent peptide)” value in the data set with MCF7 cells [2] is recorded as “no entry”.

With “BR: untagged peptide from the basic region of HEXIM1 containing the HDM2 ubiquitination residues (a.a. 147–164) (QLGKKKHRRRPSKKKRHW; UniProt O94992 147-164, looked up, fragment)”, the results for the cell viability entry in the data set with MDA-MB-231 cells and with MCF7 cells [3] were “had no effect on cell viability; also recorded: remained highly viable” and “had no effect on cell viability”, respectively.
